{"source": "patent US20230235047A1", "about": "(Innovent, published 2023)", "binders": {"B1": {"name": "51H10 (antibody, human IgG1, kappa, V domains shown)", "VH": "EVQLQQSVPELVKPGASVRMSCKASGYTFTKYIIQWVKQKPGQGLEWIAYINPYNDDTKYNEKFKGKATLTSDKSASTAYMELSSLTSEDSAVYYCATTYYGNSFPNWGQGTLVTVSA", "VL": "DIVMTQSPSSLTVTAGERVTMTCKSSQSLLNSGNQKNYLTWYQQKPGQPPKLLIYWASTRESGVPDRFTGSGSGTDFTLTISSLQSEDLAVYFCQNDYSFPFTFGSGTKLEIKR"}, "B2": {"name": "3G3 (antibody, human IgG1, kappa, V domains shown)", "VH": "QVQLQQSGPQLVRPGASVKISCKASGYSFTTYWMHWVKQRPGQGLEWIGLIDPSDSETRLNQKFKDKATLTVDKSSSTAYMRLSSPTSEDSAVYYCASNRWLLGWGQGTLVTVSS", "VL": "B1 VL with V3Q, T5I, R18K, T22S, L84V, S86T, F93Y, F100Y, F102L, S106A"}, "B3": {"name": "14A5 (antibody, human IgG1, kappa, V domains shown)", "VH": "QVQLKESGPGLVAPSQSLSITCSVSGFSLNSYGVGWVRQPPGKGLEWLGVIWGDGSTNYHSVLISRLSIRKDNSKSQVFLKLNSLQTDDTATYYCAMITRGNAMDYWGQGTSVTVSS", "VL": "DIVMTQSPSSLTVTAGEKITMSCKSSQSLLNSGNQRNYLTWYQQKPGQTPKLLIYWASTRKSGVPDRFTGSGSGTDFTLTISSVQAEDLAVYSCQNNYLFPLTFGAGTKLELKR"}, "B4": {"name": "59C1 (antibody, human IgG1, kappa, V domains shown)", "VH": "QVQLKESGPDLVKPSQSLSLTCTVTGYSITSGYGWNWIRQFPGNKLEWMGYIHFSGSTNYNPSLKSRISITRDTSKNQFFLQLNSVTTEDTATYYCARSGKGNAMDYWGQGTSVTVSS", "VL": "DIQMTQSPSSLTVTAGEKVTMSCKSSQSLLNSGNQKNYLTWYQQKPGQPPKLLIYWASTRESGVPDRFTGSGSGTDFTLTVINMQAEDLALYYCQNDYYFPFTFGSGTKLEIKR"}, "B5": {"name": "25C7 (antibody, human IgG1, kappa, V domains shown)", "VH": "EVMLVESGGGLVQPGGSRKLSCAASGFTFSDYGMAWVRQAPGKGPEWVAFINNLAYSIYYVDTVTGRFTISRENAKDTLYLEMSSLRSEDTALYYCARFTTGNVMDYWGQGTSVTVSS", "VL": "DIVMTQSPSSLTVTAGEKVTMTCKSSQSLLNGGNQKNYLTWYQQKPGQPPKLLIYWSSTRESGVPDRFTGSGSGTDFTLTITSVQAEDLAVYYCQNSYSYPLTFGSGTKLELKR"}, "B6": {"name": "69H9 (antibody, human IgG1, kappa, V domains shown)", "VH": "EVQLQQSGPELMKPGASVKISCKATGYSFSSYNIHWVKQSHGKSLEWIGYIAPFNGDSRYNQKFKGKATVTVDKSSSTAYMHLSSLTSEDSAVYYCGRLNRGNSLDYWGQGTSLTVSS", "VL": "B3 VL with I19V, L30F, T49P, K61E, V91F, S93Y, L99I, F100Y"}, "B7": {"name": "38F8 (antibody, human IgG1, kappa, V domains shown)", "VH": "EVQLVESGGGLVKPGGSLKLSCAASGFSFSDYGMHWVRQAPEKGLEWIAYINSGSRTLYYADTVKGRFTISRDNAKNTLFLQMTSLRSEETAMYYCTRNAYYGNAMDYWGQGTSVTVSS", "VL": "DIQMTQSPSSLTVTAGEKVTMSCKSSQSLLNSGNQRNYLTWYQQIPGQPPKLLIYWSSTRGSGVPDRFTGSGSGTDFTLTISSVQAEDLAVYFCQNVYYYPFTFGSGTRLEVKR"}, "B8": {"name": "46F6 (antibody, human IgG1, kappa, V domains shown)", "VH": "QVQLKESGPGLVAPSQSLSITCTVSGFSLTDYGVSWIRQPPGKGLEWLGVMWGGGNTYYNSALKSRLSISKDNSKSQVFLKMNSLQSDDTAMYYCAKQRYGGNAMDYWGQGTSVTVSS", "VL": "DIQMTQSPSSLTVTAGEKVTMSCKSSQSLLNSGNQRNYLTWYQQIPGQPPKLLIYWASTRESGVPNRFTGSGSGAEFTLTISSVQTEDLAVYYCQNSYFYPFTFGAGTKLELKR"}}, "note": "Changes are numbered by the printed parent chain.", "data": [{"biological_target": "T1, human CLDN18.2 on cells (CHO-hCLDN18.2, HEK293-hCLDN18.2, KATO III-hCLDN18.2, DAN-G-hCLDN18.2, NUGC-4) (human, UniProt P56856-2 1-261)", "T1 construct": "whole, on cells; NUGC-4 is used untransfected; also called human Claudin18.2", "experiment": "flow cytometry (FACS) on CHO-hCLDN18.2 cells, MFI against Log[Conc.(nM)]; EC50 from the table under the plot", "description": "(§1) The binding of each of the above 9 antibodies to the CHO-S cell lines stably transfected with human CLDN18.2 and human CLDN18.1 (i.e., CHO-hCLDN18.2 and CHO-hCLDN18.1 prepared as described in the Examples) obtained in Example 1 was determined by flow cytometry (FACS). Reference was made to Example 2 for the experimental methods. The experimental data were analyzed using GraphPad Prism software, and FIGS. 1 and 2 were obtained.", "units": {"EC50": "nM"}, "values": [{"binder": "B1", "EC50": 7.51}, {"binder": "B2", "EC50": 9.75}, {"binder": "B3", "EC50": 5.49}, {"binder": "B4", "EC50": 5.7}, {"binder": "B5", "EC50": 13.6}]}, {"biological_target": "T2, human Claudin18.2 protein (P50251802, GenScript) (human, UniProt P56856-2 1-261, limits assumed)", "T2 construct": "also called human CLDN18.2", "experiment": "BLI (Fortebio Octet Red96), AHC sensor, antibody and human Claudin18.2 protein (GenScript)", "description": "The equilibrium dissociation constant (KD) for binding of the antibodies of the present invention to human CLDN18.2 was determined by bio-layer interferometry (BLI). A BLI affinity assay was conducted according to the existing method (Estep, P et al., High throughput solution based measurement of antibody-antigen affinity and epitope binding. MAbs, 2013.5(2): p. 270-8). The AHC (18-5060, Fortebio) sensor was soaked in SD buffer (lx PBS, BSA 0.1%, Tween-20 0.05%). 100 μL of SD buffer, each antibody and human Claudin18.2 protein (P50251802, GenScript) were added to a 96-well black polystyrene half-area microplate (Greiner, 675076), respectively. The detection was performed using Fortebio Octet Red96, and the KD values were analyzed using Fortebio Octet analysis software.", "units": {"Kd": "nM"}, "values": [{"binder": "B1", "Kd": 1.9}, {"binder": "B2", "Kd": 2.8}, {"binder": "B3", "Kd": 0.529}, {"binder": "B6", "Kd": 0.946}, {"binder": "B7", "Kd": 1.03}, {"binder": "B4", "Kd": 1.01}, {"binder": "B8", "Kd": 0.732}, {"binder": "B5", "Kd": 1.46}]}, {"biological_target": "T1, human CLDN18.2 on cells (CHO-hCLDN18.2, …)", "experiment": "flow cytometry (FACS) on CHO-hCLDN18.2 cells, MFI against Log[Conc.(nM)]; EC50 from the table under the plot", "remark": "another data set of the same source", "description": "as §1", "units": {"EC50": "nM"}, "values": [{"binder": "B6", "EC50": 5.36}, {"binder": "B8", "EC50": 5.41}]}, {"biological_target": "T3, human CLDN18.1 on cells (CHO-hCLDN18.1) (human, UniProt P56856 1-261)", "T3 construct": "whole, on cells; also called human Claudin18.1", "experiment": "flow cytometry (FACS) on CHO-hCLDN18.1 cells", "description": "as §1", "values": [{"binder": "B1", "binding result": "no binding"}, {"binder": "B2", "binding result": "no binding"}, {"binder": "B3", "binding result": "no binding"}, {"binder": "B6", "binding result": "no binding"}, {"binder": "B7", "binding result": "no binding"}, {"binder": "B4", "binding result": "no binding"}, {"binder": "B8", "binding result": "no binding"}, {"binder": "B5", "binding result": "no binding"}]}, {"biological_target": "T1, human CLDN18.2 on cells (CHO-hCLDN18.2, …)", "experiment": "flow cytometry (FACS) on CHO-hCLDN18.2 cells, MFI against Log[Conc.(nM)]; EC50 from the table under the plot", "remark": "another data set of the same source", "description": "as §1", "units": {"EC50": "nM"}, "values": [{"binder": "B7", "EC50": 5.88}]}]}
